Measurements published in article doi:10.1101/2022.06.02.494603 (bioRxiv, 2022).

B1: TBK1 I710N, untagged (natural protein, human, UniProt Q9UHD2 1-729, looked up)
chain: MQSTSNHLWLLSDILGQGATANVFRGRHKKTGDLFAIKVFNNISFLRPVDVQMREFEVLKKLNHKNIVKLFAIEEETTTRHKVLIMEFCPCGSLYTVLEEPSNAYGLPESEFLIVLRDVVGGMNHLRENGIVHRDIKPGNIMRVIGEDGQSVYKLTDFGAARELEDDEQFVSLYGTEEYLHPDMYERAVLRKDHQKKYGATVDLWSIGVTFYHAATGSLPFRPFEGPRRNKEVMYKIITGKPSGAISGVQKAENGPIDWSGDMPVSCSLSRGLQVLLTPVLANILEADQEKCWGFDQFFAETSDILHRMVIHVFSLQQMTAHKIYIHSYNTATIFHELVYKQTKIISSNQELIYEGRRLVLEPGRLAQHFPKTTEENPIFVVSREPLNTIGLIYEKISLPKVHPRYDLDGDASMAKAITGVVCYACRIASTLLLYQELMRKGIRWLIELIKDDYNETVHKKTEVVITLDFCIRNIEKTVKVYEKLMKINLEAAELGEISDIHTKLLRLSSSQGTIETSLQDIDSRLSPGGSLADAWAHQEGTHPKDRNVEKLQVLLNCMTEIYYQFKKDKAERRLAYNEEQIHKFDKQKLYYHATKAMTHFTDECVKKYEAFLNKSEEWIRKMLHLRKQLLSLTNQCFDIEEEVSKYQEYTNELQETLPQKMFTASSGIKHTMTPIYPSSNTLVEMTLGMKKLKEEMEGVVKELAENNHNLERFGSLTMDGGLRNVDCL
B2: TBK1 R134H, untagged (natural protein, human, UniProt Q9UHD2 1-729, looked up)
chain: MQSTSNHLWLLSDILGQGATANVFRGRHKKTGDLFAIKVFNNISFLRPVDVQMREFEVLKKLNHKNIVKLFAIEEETTTRHKVLIMEFCPCGSLYTVLEEPSNAYGLPESEFLIVLRDVVGGMNHLRENGIVHHDIKPGNIMRVIGEDGQSVYKLTDFGAARELEDDEQFVSLYGTEEYLHPDMYERAVLRKDHQKKYGATVDLWSIGVTFYHAATGSLPFRPFEGPRRNKEVMYKIITGKPSGAISGVQKAENGPIDWSGDMPVSCSLSRGLQVLLTPVLANILEADQEKCWGFDQFFAETSDILHRMVIHVFSLQQMTAHKIYIHSYNTATIFHELVYKQTKIISSNQELIYEGRRLVLEPGRLAQHFPKTTEENPIFVVSREPLNTIGLIYEKISLPKVHPRYDLDGDASMAKAITGVVCYACRIASTLLLYQELMRKGIRWLIELIKDDYNETVHKKTEVVITLDFCIRNIEKTVKVYEKLMKINLEAAELGEISDIHTKLLRLSSSQGTIETSLQDIDSRLSPGGSLADAWAHQEGTHPKDRNVEKLQVLLNCMTEIYYQFKKDKAERRLAYNEEQIHKFDKQKLYYHATKAMTHFTDECVKKYEAFLNKSEEWIRKMLHLRKQLLSLTNQCFDIEEEVSKYQEYTNELQETLPQKMFTASSGIKHTMTPIYPSSNTLVEMTLGMKKLKEEMEGVVKELAENNHILERFGSLTMDGGLRNVDCL
B3: TBK1 Q581H, untagged (natural protein, human, UniProt Q9UHD2 1-729, looked up)
chain: MQSTSNHLWLLSDILGQGATANVFRGRHKKTGDLFAIKVFNNISFLRPVDVQMREFEVLKKLNHKNIVKLFAIEEETTTRHKVLIMEFCPCGSLYTVLEEPSNAYGLPESEFLIVLRDVVGGMNHLRENGIVHRDIKPGNIMRVIGEDGQSVYKLTDFGAARELEDDEQFVSLYGTEEYLHPDMYERAVLRKDHQKKYGATVDLWSIGVTFYHAATGSLPFRPFEGPRRNKEVMYKIITGKPSGAISGVQKAENGPIDWSGDMPVSCSLSRGLQVLLTPVLANILEADQEKCWGFDQFFAETSDILHRMVIHVFSLQQMTAHKIYIHSYNTATIFHELVYKQTKIISSNQELIYEGRRLVLEPGRLAQHFPKTTEENPIFVVSREPLNTIGLIYEKISLPKVHPRYDLDGDASMAKAITGVVCYACRIASTLLLYQELMRKGIRWLIELIKDDYNETVHKKTEVVITLDFCIRNIEKTVKVYEKLMKINLEAAELGEISDIHTKLLRLSSSQGTIETSLQDIDSRLSPGGSLADAWAHQEGTHPKDRNVEKLQVLLNCMTEIYYQFKKDKAERRLAYNEEHIHKFDKQKLYYHATKAMTHFTDECVKKYEAFLNKSEEWIRKMLHLRKQLLSLTNQCFDIEEEVSKYQEYTNELQETLPQKMFTASSGIKHTMTPIYPSSNTLVEMTLGMKKLKEEMEGVVKELAENNHILERFGSLTMDGGLRNVDCL
B4: TBK1 Q565P, untagged (natural protein, human, UniProt Q9UHD2 1-729, looked up)
chain: MQSTSNHLWLLSDILGQGATANVFRGRHKKTGDLFAIKVFNNISFLRPVDVQMREFEVLKKLNHKNIVKLFAIEEETTTRHKVLIMEFCPCGSLYTVLEEPSNAYGLPESEFLIVLRDVVGGMNHLRENGIVHRDIKPGNIMRVIGEDGQSVYKLTDFGAARELEDDEQFVSLYGTEEYLHPDMYERAVLRKDHQKKYGATVDLWSIGVTFYHAATGSLPFRPFEGPRRNKEVMYKIITGKPSGAISGVQKAENGPIDWSGDMPVSCSLSRGLQVLLTPVLANILEADQEKCWGFDQFFAETSDILHRMVIHVFSLQQMTAHKIYIHSYNTATIFHELVYKQTKIISSNQELIYEGRRLVLEPGRLAQHFPKTTEENPIFVVSREPLNTIGLIYEKISLPKVHPRYDLDGDASMAKAITGVVCYACRIASTLLLYQELMRKGIRWLIELIKDDYNETVHKKTEVVITLDFCIRNIEKTVKVYEKLMKINLEAAELGEISDIHTKLLRLSSSQGTIETSLQDIDSRLSPGGSLADAWAHQEGTHPKDRNVEKLQVLLNCMTEIYYPFKKDKAERRLAYNEEQIHKFDKQKLYYHATKAMTHFTDECVKKYEAFLNKSEEWIRKMLHLRKQLLSLTNQCFDIEEEVSKYQEYTNELQETLPQKMFTASSGIKHTMTPIYPSSNTLVEMTLGMKKLKEEMEGVVKELAENNHILERFGSLTMDGGLRNVDCL
B5: TBK1 M559R, untagged (natural protein, human, UniProt Q9UHD2 1-729, looked up)
chain: MQSTSNHLWLLSDILGQGATANVFRGRHKKTGDLFAIKVFNNISFLRPVDVQMREFEVLKKLNHKNIVKLFAIEEETTTRHKVLIMEFCPCGSLYTVLEEPSNAYGLPESEFLIVLRDVVGGMNHLRENGIVHRDIKPGNIMRVIGEDGQSVYKLTDFGAARELEDDEQFVSLYGTEEYLHPDMYERAVLRKDHQKKYGATVDLWSIGVTFYHAATGSLPFRPFEGPRRNKEVMYKIITGKPSGAISGVQKAENGPIDWSGDMPVSCSLSRGLQVLLTPVLANILEADQEKCWGFDQFFAETSDILHRMVIHVFSLQQMTAHKIYIHSYNTATIFHELVYKQTKIISSNQELIYEGRRLVLEPGRLAQHFPKTTEENPIFVVSREPLNTIGLIYEKISLPKVHPRYDLDGDASMAKAITGVVCYACRIASTLLLYQELMRKGIRWLIELIKDDYNETVHKKTEVVITLDFCIRNIEKTVKVYEKLMKINLEAAELGEISDIHTKLLRLSSSQGTIETSLQDIDSRLSPGGSLADAWAHQEGTHPKDRNVEKLQVLLNCRTEIYYQFKKDKAERRLAYNEEQIHKFDKQKLYYHATKAMTHFTDECVKKYEAFLNKSEEWIRKMLHLRKQLLSLTNQCFDIEEEVSKYQEYTNELQETLPQKMFTASSGIKHTMTPIYPSSNTLVEMTLGMKKLKEEMEGVVKELAENNHILERFGSLTMDGGLRNVDCL
B6: TBK1 L94S, untagged (natural protein, human, UniProt Q9UHD2 1-729, looked up)
chain: MQSTSNHLWLLSDILGQGATANVFRGRHKKTGDLFAIKVFNNISFLRPVDVQMREFEVLKKLNHKNIVKLFAIEEETTTRHKVLIMEFCPCGSSYTVLEEPSNAYGLPESEFLIVLRDVVGGMNHLRENGIVHRDIKPGNIMRVIGEDGQSVYKLTDFGAARELEDDEQFVSLYGTEEYLHPDMYERAVLRKDHQKKYGATVDLWSIGVTFYHAATGSLPFRPFEGPRRNKEVMYKIITGKPSGAISGVQKAENGPIDWSGDMPVSCSLSRGLQVLLTPVLANILEADQEKCWGFDQFFAETSDILHRMVIHVFSLQQMTAHKIYIHSYNTATIFHELVYKQTKIISSNQELIYEGRRLVLEPGRLAQHFPKTTEENPIFVVSREPLNTIGLIYEKISLPKVHPRYDLDGDASMAKAITGVVCYACRIASTLLLYQELMRKGIRWLIELIKDDYNETVHKKTEVVITLDFCIRNIEKTVKVYEKLMKINLEAAELGEISDIHTKLLRLSSSQGTIETSLQDIDSRLSPGGSLADAWAHQEGTHPKDRNVEKLQVLLNCMTEIYYQFKKDKAERRLAYNEEQIHKFDKQKLYYHATKAMTHFTDECVKKYEAFLNKSEEWIRKMLHLRKQLLSLTNQCFDIEEEVSKYQEYTNELQETLPQKMFTASSGIKHTMTPIYPSSNTLVEMTLGMKKLKEEMEGVVKELAENNHILERFGSLTMDGGLRNVDCL
B7: TBK1 R440Q, untagged (natural protein, human, UniProt Q9UHD2 1-729, looked up)
chain: MQSTSNHLWLLSDILGQGATANVFRGRHKKTGDLFAIKVFNNISFLRPVDVQMREFEVLKKLNHKNIVKLFAIEEETTTRHKVLIMEFCPCGSLYTVLEEPSNAYGLPESEFLIVLRDVVGGMNHLRENGIVHRDIKPGNIMRVIGEDGQSVYKLTDFGAARELEDDEQFVSLYGTEEYLHPDMYERAVLRKDHQKKYGATVDLWSIGVTFYHAATGSLPFRPFEGPRRNKEVMYKIITGKPSGAISGVQKAENGPIDWSGDMPVSCSLSRGLQVLLTPVLANILEADQEKCWGFDQFFAETSDILHRMVIHVFSLQQMTAHKIYIHSYNTATIFHELVYKQTKIISSNQELIYEGRRLVLEPGRLAQHFPKTTEENPIFVVSREPLNTIGLIYEKISLPKVHPRYDLDGDASMAKAITGVVCYACRIASTLLLYQELMQKGIRWLIELIKDDYNETVHKKTEVVITLDFCIRNIEKTVKVYEKLMKINLEAAELGEISDIHTKLLRLSSSQGTIETSLQDIDSRLSPGGSLADAWAHQEGTHPKDRNVEKLQVLLNCMTEIYYQFKKDKAERRLAYNEEQIHKFDKQKLYYHATKAMTHFTDECVKKYEAFLNKSEEWIRKMLHLRKQLLSLTNQCFDIEEEVSKYQEYTNELQETLPQKMFTASSGIKHTMTPIYPSSNTLVEMTLGMKKLKEEMEGVVKELAENNHILERFGSLTMDGGLRNVDCL
B8: TBK1 R47H, untagged (natural protein, human, UniProt Q9UHD2 1-729, looked up)
chain: MQSTSNHLWLLSDILGQGATANVFRGRHKKTGDLFAIKVFNNISFLHPVDVQMREFEVLKKLNHKNIVKLFAIEEETTTRHKVLIMEFCPCGSLYTVLEEPSNAYGLPESEFLIVLRDVVGGMNHLRENGIVHRDIKPGNIMRVIGEDGQSVYKLTDFGAARELEDDEQFVSLYGTEEYLHPDMYERAVLRKDHQKKYGATVDLWSIGVTFYHAATGSLPFRPFEGPRRNKEVMYKIITGKPSGAISGVQKAENGPIDWSGDMPVSCSLSRGLQVLLTPVLANILEADQEKCWGFDQFFAETSDILHRMVIHVFSLQQMTAHKIYIHSYNTATIFHELVYKQTKIISSNQELIYEGRRLVLEPGRLAQHFPKTTEENPIFVVSREPLNTIGLIYEKISLPKVHPRYDLDGDASMAKAITGVVCYACRIASTLLLYQELMRKGIRWLIELIKDDYNETVHKKTEVVITLDFCIRNIEKTVKVYEKLMKINLEAAELGEISDIHTKLLRLSSSQGTIETSLQDIDSRLSPGGSLADAWAHQEGTHPKDRNVEKLQVLLNCMTEIYYQFKKDKAERRLAYNEEQIHKFDKQKLYYHATKAMTHFTDECVKKYEAFLNKSEEWIRKMLHLRKQLLSLTNQCFDIEEEVSKYQEYTNELQETLPQKMFTASSGIKHTMTPIYPSSNTLVEMTLGMKKLKEEMEGVVKELAENNHILERFGSLTMDGGLRNVDCL

target: optineurin, C-terminal myc-FLAG-tagged (UniProt Q96CV9 1-577); assay: co-IP
Sequence (Q96CV9 whole entry): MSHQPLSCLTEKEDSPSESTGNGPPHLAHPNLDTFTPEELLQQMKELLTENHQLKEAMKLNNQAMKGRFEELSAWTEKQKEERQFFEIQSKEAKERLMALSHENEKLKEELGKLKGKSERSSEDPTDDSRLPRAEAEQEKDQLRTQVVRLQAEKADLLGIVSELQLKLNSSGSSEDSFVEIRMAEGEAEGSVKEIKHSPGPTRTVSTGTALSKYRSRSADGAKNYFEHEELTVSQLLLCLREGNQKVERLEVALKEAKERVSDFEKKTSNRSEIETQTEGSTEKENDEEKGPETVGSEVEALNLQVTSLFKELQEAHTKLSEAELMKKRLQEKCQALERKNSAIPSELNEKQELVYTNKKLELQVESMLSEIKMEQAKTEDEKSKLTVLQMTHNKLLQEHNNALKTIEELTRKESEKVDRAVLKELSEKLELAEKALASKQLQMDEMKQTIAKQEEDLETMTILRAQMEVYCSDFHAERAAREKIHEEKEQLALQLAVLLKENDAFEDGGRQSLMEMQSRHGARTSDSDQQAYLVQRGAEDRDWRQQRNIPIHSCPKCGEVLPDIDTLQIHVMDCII

Binder	TBK1 bound to OPTN relative to wild type
B1	0.07 relative to TBK1 WT
B2	2.53 relative to TBK1 WT
B3	0.2 relative to TBK1 WT
B4	0.14 relative to TBK1 WT
B5	0.05 relative to TBK1 WT
B6	0.04 relative to TBK1 WT
B7	0.17 relative to TBK1 WT
B8	3.23 relative to TBK1 WT
